Experimental data as given in patent publication US20100086958A1, “NOVEL ENZYME” (priority 2008, published 2010).

Experiments:
[1] = Thermal stability study (remaining activity after incubation); format: physicochemical
Procedure: FIGS. 19 and 20—show the effect of temperature on the stability of the Bsp184FDH and Bsp383FDH enzymes. In FIG. […] In FIG. 20 (1) Bsp184FDH (2.1 mg/mL) and (2) Bsp383FDH (1.5 mg/mL) were incubated at 60° C. and 70° C. for 48 hours period in a similar way. Remaining activities were assayed under standard assay conditions and were expressed as the percentage of activities.
Thermal stability for purified wild-type BcenFDH1 (Bsp184FDH) and BspFDH2 (Bsp383FDH) catalyzed formate oxidation were investigated by Uv/V is spectrophotometry in a 96-well plate format. The results are illustrated in FIGS. 19 and 20. […] In addition, time based-thermal stability for purified wild-type BcenFDH1 (Bsp184FDH) and BspFDH2 (Bsp383FDH) catalyzed formate oxidation were also investigated at 60° C. and 70° C. over 48 hours in a similar way. The samples were spun down briefly to remove any precipitations before use. 10 μL of heat-treated BcenFDH1 and BspFDH2 were added into each well and equilibrated for 3 min at 30° C. after adding 170 μL of 200 mM sodium formate (dissolving in 50 mM sodium phosphate buffer, pH 7.0.) The reaction was initiated by addition of 20 μL of NADP^+ solution from a freshly prepared stock of 20 mM using an 8-channel pipette. The plate was then immediately placed into the plate reader. The plate was shaken for 5 seconds to ensure thorough mixing. Time-based measurements were recorded every 10 s for 10 min. The rate of formate oxidation was calculated using the absorption coefficient of 3.38 mM^−1 (for 200 μL).

[2] = Assay of enzyme activity (specific activity, U/mg); format: biochemical; details: unit = μmol formate oxidized per min in the presence of co-factor; This work
Procedure: The reaction was initiated by addition of NAD^+. The total volume of the reaction mixture was 1 mL. Specific activity (U/mg enzyme) was defined as number of μmols of product formed per mg enzyme per minute.

[3] = Steady state kinetics for NAD^+ (FDH-catalysed formate oxidation); format: biochemical; details: cofactor NAD^+, 0.18M formate
Procedure: (§1) BcenFDH1 (Bsp184FDH) and BspFDH2 (Bsp383FDH) catalyzed oxidation of formate to CO2 was monitored by UV/Vis spectrophotometry in a 96-well plate format. A series of eight solutions of formate (0-200 mM) were prepared by successive dilutions of a stock solution of 0.5 M sodium formate in 0.1 M sodium phosphate buffer, pH 7.0. From this series, 170 μL was transferred into wells of the 96-well plate. 10 μL of the FDHs from a stock solution (64.1 μM for BcenFDH1 (Bsp184FDH) and 78.0 μM for BspFDH2 (Bsp383FDH)) were added into each well and equilibrated for 3 min at 30° C. The reaction was initiated by addition of 20 μL of NAD^+ or NADP^+ solution from a freshly prepared stock (10 mM) using an 8-channel pipette. The plate was then immediately placed into the plate reader. The plate was shaken for 5 s to ensure thorough mixing, and then time-based measurements were recorded every 15 s for 10 min. The rate of formate oxidation was calculated using an extinction coefficient of 3.38 mM^−1 (for 200 μL), which was determined using NADH standards. Km and Vmax values were obtained by non-linear regression to the Michaelis-Menten equation (Eq.1 below) using Origin v7 (Microcal Software Inc.).
(§2) Similar procedure were used for determination of Michaelis-Menten parameters for NAD^+ and NADP^+. A series of eight solutions of cofactor (0-75 mM) were prepared by successive dilutions of stock solutions. […] of sodium formate solutions (180 mM in well) were transferred into wells of the 96-well plate. 10 μL of the FDHs from a stock solution (64.1 μM for BcenFDH1 (Bsp184FDH) and 78.0 μM for BspFDH2 (Bsp383FDH)) were added into each well and equilibrated for 3 min at 30° C. The reaction was initiated by addition of 20 μL of NAD^+ or NADP^+ solutions using an 8-channel pipette. The plate was then immediately placed into the plate reader. The plate was shaken for 5 s to ensure thorough mixing, and then time-based measurements were recorded every 15 s for 10 min. The rate of formate oxidation was calculated using an extinction coefficient of 3.38 mM^−1 (for 200 μL), which was determined using NADH standards. Km and Vmax values were obtained by non-linear regression to the Michaelis-Menten equation as before.

[4] = Steady state kinetics for formate oxidation; format: biochemical
Procedure: as §1

[5] = Steady state kinetics for NADP^+ (FDH-catalysed formate oxidation); format: biochemical
Procedure: as §1, §2

[6] = pH profile determination of FDH-catalysed formate oxidation; format: biochemical; details: pHs as low 4 or as high as 10.5
Procedure: The pH profiles for BcenFDH1 (Bsp184FDH) and BspFDH2 (Bsp383FDH) catalyzed formate oxidation, shown in FIG. 13(a) and (b), were investigated by Uv/Vis spectrophotometry in a 96-well plate format. […] From this series, 170 μL was transferred into wells of the 96-well plate. 10 μL of the FDHs from a stock solution solution (64.1 μM for BcenFDH1 (Bsp184FDH) and 78.0 μM for BspFDH2 (Bsp383FDH)) were added into each well and equilibrated for 3 min at 30° C. The reaction was initiated by addition of 20 μL of NAD^+ solution from a freshly prepared stock (10 mM) using an 8-channel pipette. The plate was then immediately placed into the plate reader. The plate was shaken for 5 s to ensure thorough mixing, and then time-based measurements were recorded every 15 s for 10 min. The rate of formate oxidation was calculated using an extinction coefficient of 3.38 mM^−1 (for 200 μL).

B1: Bsp184FDH: wild type FDH from Burkholderia cenocepacia PC184, Seq ID No: 2, C-terminal His-tagged (protein, listed as Burkholderia cenocepacia)
chain: MATVLCVLYPDPVDGYPPRYVRDTIPVITHYADGQTAPTPAGPPGFRPGELVGSVSGALGLRGYMEAHGHTLIVTSDKDGPDSEFERRLPEADVVISQPFWPAYLSAERIARAPKLKLALTAGIGSDHVDLDAAARARITVAEVTGSNSISVAEHVVMTTLALVRNYLPSHAVAQQGGWNIADCVSRSYDVEGMHFGTVGAGRIGLAVLRRLQPFGLQLHYTQRHRLDASIEQALALTYHADVASLASAVDIVNLQIPLYPSTEHLFDAAMIARMKRGAYLINTARAKLVDRDAVVNALTSGHLAGYGGDVWFPQPAPADHPWRTMPFNGMTPHISGTSLSAQARYAAGTLEILQCWFDGRPIRNEYLIVDGGTLAGTGAQSYRLT
modifications: C-terminal His tag
Question: For B1, which “temperature at which the enzymes denature” value [1] is on record?
Answer: 80 °C

Question: What about the “activity lost upon incubation” value ([1]; 55° C. for 2 hours) of the same molecule?
Answer: no activity was lost

Question: And the “stability at room temperature” value ([1]; room temperature for weeks)?
Answer: stable

Question: What about the “activity with NADP^+” value [2] of the same molecule?
Answer: 3.12 U/mg

Question: What about the “activity with NAD^+” value [2] of the same molecule?
Answer: 0.48 U/mg

Question: What about the Km [3] of the same molecule?
Answer: 15 ± 4 mM

Question: And the “kcat NAD^+” value [3]?
Answer: 0.567 ± 0.12 s⁻¹

Question: And the kcat ([4]; formate oxidation with NADP^+)?
Answer: 2.2073 ± 0.2553 s⁻¹

Question: What about the Km ([4]; formate oxidation with NAD^+) of the same molecule?
Answer: 99.2 ± 7.11 mM

Question: What about the kcat ([4]; formate oxidation with NAD^+) of the same molecule?
Answer: 0.34 ± 0.0123 s⁻¹

Question: What about the Km ([5]; cofactor NADP^+, 0.18M formate) of the same molecule?
Answer: 1.1 ± 0.1 mM

Question: And the “kcat NADP^+” value ([5]; cofactor NADP^+, 0.18M formate)?
Answer: 3.07 ± 0.083 s⁻¹

Question: What about the “cofactor preference for NADP^+, times greater than those of known FDHs such as CmetFDH” value ([5]; relative to CmetFDH) of the same molecule?
Answer: 10^6 times

Question: And the “activity at extreme pH” value [6]?
Answer: highly active
